We go through eight molecules from US10259881 (dated 2019).

Like-named read-outs stand apart in the source and are kept apart here.

Experiment [1] deals with T1, human CD137 (human, UniProt Q07011). Nature of the experiment: SPR.
Experiment [2] deals with T1, human CD137. The experiment is described as follows: SPR. The source holds these as a separate data set. (Surface plasmon resonance follows binding to a sensor surface in real time, without labels.)
The target in a further experiment is T2, murine CD137 (mouse, UniProt P20334).
T2 chain: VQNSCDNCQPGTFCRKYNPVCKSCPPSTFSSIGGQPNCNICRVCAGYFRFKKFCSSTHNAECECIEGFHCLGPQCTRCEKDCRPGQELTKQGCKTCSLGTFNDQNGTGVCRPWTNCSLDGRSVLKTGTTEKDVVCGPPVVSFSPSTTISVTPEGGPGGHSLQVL

Experiment [3] deals with T1, human CD137. Nature of the experiment: SPR. The source holds these as a separate data set.
The target of experiment [4] is T1, human CD137. The experiment is described as follows: SPR. This is another data set of the same source.

T1 sequence (Q07011 24-186): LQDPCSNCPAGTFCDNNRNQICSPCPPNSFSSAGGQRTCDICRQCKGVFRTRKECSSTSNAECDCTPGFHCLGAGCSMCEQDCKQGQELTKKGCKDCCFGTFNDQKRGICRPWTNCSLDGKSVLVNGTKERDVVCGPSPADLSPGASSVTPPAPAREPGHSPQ

B1: MSH1 (antibody, V domains shown)
VH: QMQLVQSGAEVKKPGASVKVSCKASGYNFGGYYMHWVRQAPGQGLEWMGWVNPHSGGTNYAQKFQGRVTITRDTSASTAYMELSSLRSEDTAVYYCAREGEAWGLDLDLWGQGTLVTVSS
VL: SYELTQPPSVSVAPGKTARITCGGNNIGSKSVHWYQQKPGQAPVLVIYYDSDRPSGIPERFSGSNSGNTATLTISRVEAGDEADYYCQVWDSSSVVFGGGTQLTVL
Turning to B1, in the experiment with human CD137 [1], binding was characterised by a dissociation constant (Kd) of 87.8 nM.

B2: MB3 (antibody, V domains shown)
VH: QMQLVQSGAEVKKPGASVKVSCKASGYQMRGYYMHWVRQAPGQGLEWMGWINPNSGGTNYAQKFQGRVTITRDTSASTAYMELSSLRSEDTAVYYCAREGEAVGLDLDYWGQGTLVTVSS
VL: SYELTQPPSVSVAPGKTARITCGGNNIGSKSVHWYQQKPGQAPVLVIYYDSDRPSGIPERFSGSNSGNTATLTISRVEAGDEADYYCQVWDSSSVVFGGGTQLTVL
As to B2, the Kd (usually the constant that tells how readily two partners part at equilibrium) with human CD137 [2] came to 229 nM. Moreover, the binding result with murine CD137 was “no binding”.

B3: MB12 (antibody, V domains shown)
VH: QMQLVQSGAEVKKPGASVKVSCKASGYSLEGYYMHWVRQAPGQGLEWMGWINPNSGGTNYAQKFQGRVTITRDTSASTAYMELSSLRSEDTAVYYCAREGEAVGLDLDYWGQGTLVTVSS
VL: SYELTQPPSVSVAPGKTARITCGGNNIGSKSVHWYQQKPGQAPVLVIYYDSDRPSGIPERFSGSNSGNTATLTISRVEAGDEADYYCQVWDSSSVVFGGGTQLTVL
Regarding B3, binding with human CD137 [3] was characterised by a dissociation constant (Kd) of 155 nM. In the experiment with murine CD137, the binding result is “no binding”.

B4: MSA11 (antibody, V domains shown)
VH: QMQLVQSGAEVKKPGASVKVSCKASGYSFTGYYMHWVRQAPGQGLEWMGWVNPKSGGTNYAQKFQGRVTITRDTSASTAYMELSSLRSEDTAVYYCAREGWARRIDLDEWGQGTLVTVSS
VL: SYELTQPPSVSVAPGKTARITCGGNNIGSKSVHWYQQKPGQAPVLVIYYDSDRPSGIPERFSGSNSGNTATLTISRVEAGDEADYYCQVWDSSSVVFGGGTQLTVL
With B4, in the experiment with human CD137 [4], binding was put at a Kd of 46.9 nM.

B5: MSC8 (antibody, V domains shown)
VH: QMQLVQSGAEVKKPGASVKVSCKASGYNFGGYYMHWVRQAPGQGLEWMGWVNPKSGGTNYAQKFQGRVTITRDTSASTAYMELSSLRSEDTAVYYCAREGEAVGLDLDYWGQGTLVTVSS
VL: SYELTQPPSVSVAPGKTARITCGGNNIGSKSVHWYQQKPGQAPVLVIYYDSDRPSGIPERFSGSNSGNTATLTISRVEAGDEADYYCQVWDSSSVVFGGGTQLTVL
The molecule B5 displayed a Kd with human CD137 [2] of 218 nM. Moreover, in the experiment with murine CD137, the binding result is recorded as “no binding”.

B6: MC8 (antibody, V domains shown)
VH: QMQLVQSGAEVKKPGASVKVSCKASGYMPDGYYMHWVRQAPGQGLEWMGWINPRTGGTNYAQKFQGRVTITRDTSASTAYMELSSLRSEDTAVYYCAREGAAFRLELDAWGQGTLVTVSS
VL: SYELTQPPSVSVAPGKTARITCGGNNIGSKSVHWYQQKPGQAPVLVIYYDSDRPSGIPERFSGSNSGNTATLTISRVEAGDEADYYCQVWDSSSVVFGGGTQLTVL
Consider B6, for which, in the experiment with human CD137 [4], the Kd worked out at 30.2 nM.

B7: MSB7 (antibody, V domains shown)
VH: QMQLVQSGAEVKKPGASVKVSCKASGYSFSGYYMHWVRQAPGQGLEWMGWVNPMSGGTNYAQKFQGRVTITRDTSASTAYMELSSLRSEDTAVYYCAREGMAMRLELDKWGQGTLVTVSS
VL: SYELTQPPSVSVAPGKTARITCGGNNIGSKSVHWYQQKPGQAPVLVIYYDSDRPSGIPERFSGSNSGNTATLTISRVEAGDEADYYCQVWDSSSVVFGGGTQLTVL
As for B7, the affinity with human CD137 [1], expressed as Kd, was 16.6 nM.

B8: MD4 (antibody, V domains shown)
VH: QMQLVQSGAEVKKPGASVKVSCKASGYNWTGYYMHWVRQAPGQGLEWMGWINPMAGGTNYAQKFQGRVTITRDTSASTAYMELSSLRSEDTAVYYCAREGWARGVELDMWGQGTLVTVSS
VL: SYELTQPPSVSVAPGKTARITCGGNNIGSKSVHWYQQKPGQAPVLVIYYDSDRPSGIPERFSGSNSGNTATLTISRVEAGDEADYYCQVWDSSSVVFGGGTQLTVL
Take B8: the Kd in the experiment with human CD137 [1] was determined as 8.9 nM.
